Changes are numbered by the printed parent chain. Where no end group is shown, it is not given here.
Tests used:
[1] = biological target: T1, human FPRL2 (Homo sapiens, UniProt P25089, D338H/G94A/S211T); experiment: Intracellular cAMP production inhibition assay (AlphaScreen) in human FPRL2-expressing CHO cells; assay type: cell-based; settings: summary statement in disclosure of invention
T1 construct: expressed in transfected cells; host or cells: CHO cells
T1 sequence (P25089 1-353 G94A/S211T/D338H): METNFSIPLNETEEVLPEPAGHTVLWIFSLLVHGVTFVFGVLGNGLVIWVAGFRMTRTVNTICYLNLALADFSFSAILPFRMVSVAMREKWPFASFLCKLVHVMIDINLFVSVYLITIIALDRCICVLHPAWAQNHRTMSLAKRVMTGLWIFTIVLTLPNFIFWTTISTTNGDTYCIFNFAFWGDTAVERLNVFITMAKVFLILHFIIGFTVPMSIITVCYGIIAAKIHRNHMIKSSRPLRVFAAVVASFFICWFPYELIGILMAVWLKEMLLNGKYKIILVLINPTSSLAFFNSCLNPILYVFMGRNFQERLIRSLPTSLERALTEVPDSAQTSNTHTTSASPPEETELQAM
Description: (§1) Orphan G protein-coupled receptor protein-expressing CHO cells were inoculated in one flask of 150 cm^2 at 1×10^7 cells, followed by incubation at 37° C. in a CO2 incubator. Subsequently to the incubation, the cells were detached using 0.5 mM EDTA/PBS, and washed with PBS. The cells were then suspended at a density of 1×10^7 cells/ml in Buffer 1 (HBSS+0.1% BSA, 25 mM HEPES, pH 7.3, 0.5 mM IBMX). This cell suspension, 440 μl, was mixed with 22 μl of anti-cAMP acceptor beads of AlphaScreen cAMP Assay Kit (Perkin Elmer) and 638 μl of Buffer 1. The resulting mixture was dispensed on a white 96-well plate (Costar) by 10 μl each. Next, 10 μl each of a Buffer 1 dilution or solution of the compound to be screened was added to each well. In this case, the cell suspension was not given in one row of the plate but only a mixture of 9 μl of anti-cAMP acceptor beads and 441 μl of Buffer 1 was charged and instead of the compound, a serial dilution of cAMP was added thereto. This was made standard. The plate in which a mixture of the cell suspension and the compound was charged was kept shaken at room temperature for 30 minutes. Thirty minutes after, a mixture of 20 μl of Biotinyl camp and 82 μl of Streptavin donor beads of AlphaScreen cAMP Assay kit with 40 ml of Buffer 2 (HBSS+0.1% BSA, 25 mM HEPES, pH 7.3, 1.5% Tween 20) was added to all wells of the plate by 30 μl each. The plate was kept shaken at room temperature for 3 hours and the fluorescence intensity was measured by Fusion a (Perkin Elmer). Using the cAMP standard charged in the plate, the cAMP level in each well was calculated. In addition to human FPRL2-expressing CHO cells, three orphan G protein-coupled receptor protein-expressed CHO cells were added and the resulting compound library was provided for screening using the assay system described above.

[2] = biological target: T2, human FPRL2 (Homo sapiens, UniProt P25089); experiment: as above; assay type: cell-based; settings: human FPRL2-expressing CHO cells; reactivity also examined for human FPRL1, human FPR1 and mock CHO (FIGS. 1-4)
T2 construct: expressed in transfected cells; host or cells: CHO cells
T2 sequence (P25089 1-353 G94A/S211T/D338H): T1 sequence (P25089 1-353 G94A/S211T/D338H)
Description: as §1

[3] = biological target: T3, FPRL2 (Homo sapiens, UniProt P25089); settings: J Biol. Chem., Jun. 15, 2001; 276 (24): 21585-93; cited from earlier work
T3 sequence (P25089 1-353): T1 sequence (P25089 1-353 G94A/S211T/D338H) with A94G, T211S, H338D

Substance	ligand activity on FPRL2 [1]	intracellular cAMP production inhibition activity [2]	agonist for FPRL2 (reported) [3]
Ala-Arg-Pro-Gly-Tyr-Leu-Ala-Phe-Pro-Arg-Met-NH2 (ARPGYLAFPRM-NH2; listed as Aplysia sp.) [SCPA]	exhibit a ligand activity on FPRL2	exhibited the intracellular cAMP production inhibition activity specific to human FPRL2	
Gly-Asn-His-Trp-Ala-Val-Gly-His-Leu-Met-NH2 (GNHWAVGHLM-NH2; listed as Homo sapiens) [hNeuromedin C]	exhibit a ligand activity on FPRL2	exhibited the intracellular cAMP production inhibition activity specific to human FPRL2	
His-Trp-Ala-Trp-Phe-Lys-NH2 (HWAWFK-NH2; not fully specified (residues 2, 5); printed as His-Trp-Ala-Trp-Phe-Lys-NH2) [GHRP-6]	exhibit a ligand activity on FPRL2	exhibited the intracellular cAMP production inhibition activity specific to human FPRL2	
Met-Pro-His-Ser-Phe-Ala-Asn-Leu-Pro-Leu-Arg-Phe-NH2 (MPHSFANLPLRF-NH2; listed as Sus scrofa) [hRFRP-1-12]	exhibit a ligand activity on FPRL2	exhibited the intracellular cAMP production inhibition activity specific to human FPRL2	
Trp-Lys-Tyr-Met-Val-Met-NH2			agonist for FPRL2

— US7517661B2, “Methods of screening for ligands for FPRL2” (Takeda Pharmaceutical Company Limited, priority 2003, dated 2009)
